Among the data in US20140093514A1 (UNIVERSITY OF ZURICH, published 2014) are binding result and EC50 values, retold here.

Read-outs that look alike come from different tables or passages of the source.

One test has as its target T1, recombinant MAGEA4 (UniProt P43358 1-317, limits assumed).
T1 construct: also called CT1.4
T1 sequence (looked up): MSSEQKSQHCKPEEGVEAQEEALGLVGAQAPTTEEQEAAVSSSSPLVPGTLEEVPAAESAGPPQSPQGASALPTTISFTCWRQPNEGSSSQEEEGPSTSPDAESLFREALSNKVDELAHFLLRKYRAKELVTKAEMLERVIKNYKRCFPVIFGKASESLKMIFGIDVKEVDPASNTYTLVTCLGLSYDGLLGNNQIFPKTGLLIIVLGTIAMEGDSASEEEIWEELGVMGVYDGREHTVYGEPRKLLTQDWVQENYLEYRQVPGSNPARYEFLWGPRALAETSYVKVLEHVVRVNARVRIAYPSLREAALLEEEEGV
The test is described as follows: Western blot; recombinant MAGEA4 in lane B, human antibody as probe. On the procedure: Membranes were incubated with human antibodies 21B4, 54B4, 94G11, 9A5, 31H10, 43B10, 2G4 or 20C10. Binding of human antibodies to proteins on the membrane was evaluated. The results are depicted in FIG. 3A).
(In general: Immunoblotting shows a protein as a band on a membrane.)

The target in test [1] is T2, recombinant MAGEA3 protein (human, UniProt P43357 1-314).
T2 construct: In Experiment 4C MAGEA3 was also expressed in transiently transfected HEK293T cells (fixed and permeabilized); also called His-tagged MAGEA3; CT1.3
The test is described as follows: ELISA, recombinant MAGEA3 coated to plastic, serial dilutions of antibody, OD 450 nm. On the procedure: His-tagged MAGEA3 expressed in bacteria was column-purified and used to coat 96 well microplates (Costar, USA). Plates were washed with PBS-T and blocked 1 h at room temperature with PBS containing 2% BSA (Sigma, Buchs, Switzerland). Patient sera, B cell conditioned medium, or recombinant antibody preparations were incubated for 2 h at room temperature. Binding of human IgG to MAGEA3 was determined using a horseradish peroxidase conjugated goat anti human Fc-gamma-specific antibody (Jackson ImmunoResearch, Europe Ltd., Cambridgeshire, UK) followed by measurement of the HRP activity using a TMB substrate solution (TMB, Sigma, Buchs, Switzerland).
(§1) The EC₅₀, the concentration at which half-maximal binding of the antibody to its antigen is observed was determined in MAGEA3 ELISA using serial dilutions of the human monoclonal antibodies 21B4, 54B4, 94G11, 9A5, 31H10, 43B10, 2G4, 20C10, 26C9 and 4D6. EC50 values were determined mathematically by derivation of the best-fit line using GraphPad software.

A further test addresses T3, MAGEA6 (UniProt P43360 1-314, limits assumed).
T3 construct: whole, on cells; Intracellular antigen: the transfected cells were fixed and permeabilized before staining; also called CT1.6
The test is described as follows: flow cytometry on fixed, permeabilized HEK293T cells transiently transfected with MAGEA6; PE-labeled anti-human antibody. On the procedure: HEK293T cells transiently transfected with MAGEA3 or MAGE A6 were fixed and permeabilized and incubated with human-derived antibodies. Binding of human-derived antibodies to the cells was detected by flow cytometry using PE-labeled anti-human antibodies. […] Filled histograms show binding of 21B4, 31H10, 94G11 and 54B4 to transiently transfected HEK 293 cells. Only a proportion of the cells was transfected resulting in a population expressing the transgene and in a population not expressing the transgene. […] The results are depicted in FIG. 3C).
For orientation: Flow cytometry measures light scatter and fluorescence of single cells or particles in a stream.

Another test addresses T4, recombinant MAGEA10 (UniProt P43363 1-369, limits assumed).
T4 construct: also called CT1.10
In words: ELISA on coated recombinant MAGEA proteins, serial dilutions of antibody (concentrations not printed on the sheet). The procedure: (§2) Recombinantly expressed MAGEA3, MAGEA1, MAGEA4, MAGEA10 were coated on ELISA plates and binding of MAGEA3 antibodies 21B4, 94G11, 2G4, 9A5 and 54B4 to these proteins was tested. The results are depicted in FIG. 3B).
On the technique in general: ELISA stands for enzyme-linked immunosorbent assay.

The next test concerns the target T5, recombinant MAGEA1 (UniProt P43355 1-309, limits assumed).
T5 construct: also called CT1.1
T5 sequence (looked up): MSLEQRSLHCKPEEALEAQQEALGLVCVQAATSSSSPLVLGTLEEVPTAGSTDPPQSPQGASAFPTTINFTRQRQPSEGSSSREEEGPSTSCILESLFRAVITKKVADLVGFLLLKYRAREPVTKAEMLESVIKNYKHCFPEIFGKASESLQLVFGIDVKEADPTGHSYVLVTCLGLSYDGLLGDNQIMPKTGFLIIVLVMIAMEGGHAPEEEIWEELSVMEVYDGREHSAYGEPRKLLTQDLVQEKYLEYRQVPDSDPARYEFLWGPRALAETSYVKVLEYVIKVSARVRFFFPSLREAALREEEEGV
The description is as above. On the procedure:
as §2

In another test the target is T6, MAGEA3 peptide No 22.
T6 construct: member of the group m18; also called 20mer peptide, amino acids 211-230 of MAGEA3
T6 peptide: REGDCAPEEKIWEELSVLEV
In words: ELISA on plates coated with overlapping 20mer MAGEA3 peptides; antibody at 1 µg/ml; HRP goat anti-human IgG Fc-gamma. The procedure:
(§3) 20mer peptides spanning the entire MAGEA3 protein with 10 aa overlaps shared by each adjacent peptide (Peptides&Elephants, Nuthetal, Germany) were used to coat Maxisorp ELISA plates (Nunc, Rochester, N.Y.). As control a 20mer peptide representing amino acids 40-21 from the NY-ESO-1 protein was used (rev). The numbering of amino acids of MAGEA3 is based on SEQ ID No.: 101.
(§4) Human recombinant antibody was used at a concentration of 1 μg/ml with the exception of antibody 9A5 which was used at […]. Bound human antibody was detected using horseradish peroxidase-conjugated goat anti-human IgG Fc-gamma specific antibodies (Jackson ImmunoResearch, Europe Ltd., Cambridgeshire, UK).

Test [2] has as its target T2, recombinant MAGEA3 protein. The test is described as follows: ELISA, recombinant MAGEA3 coated to plastic, serial dilutions of antibody, OD 450 nm. The procedure: FIG. 4 EC50 determination of recombinant human monoclonal antibodies to MAGEA3. MAGEA3-ELISA was carried out using recombinant MAGEA3 coated to plastic and serial dilutions of the human monoclonal antibodies 21B4, 54B4, 94G11, 9A5, 31H10, 43B10, 2G4, 20C10, 26C9 and 4D6 (A-J). EC50 values are indicated in each figure.
as §1
The source holds these as a separate data set.

Another test has as its target T7, MAGEA3 peptide No 10.
T7 construct: member of the group m18; also called 20mer peptide, amino acids 91-110 of MAGEA3
T7 peptide: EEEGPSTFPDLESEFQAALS
The test is described as follows: ELISA on plates coated with overlapping 20mer MAGEA3 peptides; antibody at 1 µg/ml; HRP goat anti-human IgG Fc-gamma. On the procedure:
as §3, §4

The target in the next test is T8, MAGEA3 peptide No 5.
T8 construct: member of the group m18; also called 20mer peptide, amino acids 41-60 of MAGEA3
T8 peptide: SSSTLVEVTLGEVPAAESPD
In words: ELISA on plates coated with overlapping 20mer MAGEA3 peptides; antibody 9A5 at '4 mg/ml' as printed in paragraph 376; HRP goat anti-human IgG Fc-gamma. The procedure: as §3, §4

T2 sequence (P43357 whole entry): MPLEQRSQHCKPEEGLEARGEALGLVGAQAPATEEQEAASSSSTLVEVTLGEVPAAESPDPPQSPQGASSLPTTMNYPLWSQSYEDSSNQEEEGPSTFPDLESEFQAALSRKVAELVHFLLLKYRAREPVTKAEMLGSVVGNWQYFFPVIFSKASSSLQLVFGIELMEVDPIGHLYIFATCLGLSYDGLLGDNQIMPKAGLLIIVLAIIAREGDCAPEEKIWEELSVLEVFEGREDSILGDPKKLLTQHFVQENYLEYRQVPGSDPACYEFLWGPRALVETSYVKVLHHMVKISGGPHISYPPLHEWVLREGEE
T3 sequence (P43360 whole entry): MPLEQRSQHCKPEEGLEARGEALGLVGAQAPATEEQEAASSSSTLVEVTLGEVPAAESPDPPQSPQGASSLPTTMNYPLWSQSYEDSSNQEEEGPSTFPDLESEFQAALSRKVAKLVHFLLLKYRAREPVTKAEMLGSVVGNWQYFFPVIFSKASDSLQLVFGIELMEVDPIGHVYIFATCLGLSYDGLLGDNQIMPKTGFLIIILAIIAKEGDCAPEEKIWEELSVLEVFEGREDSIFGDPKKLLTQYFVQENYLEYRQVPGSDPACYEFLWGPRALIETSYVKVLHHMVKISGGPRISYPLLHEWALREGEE
T4 sequence (P43363 whole entry): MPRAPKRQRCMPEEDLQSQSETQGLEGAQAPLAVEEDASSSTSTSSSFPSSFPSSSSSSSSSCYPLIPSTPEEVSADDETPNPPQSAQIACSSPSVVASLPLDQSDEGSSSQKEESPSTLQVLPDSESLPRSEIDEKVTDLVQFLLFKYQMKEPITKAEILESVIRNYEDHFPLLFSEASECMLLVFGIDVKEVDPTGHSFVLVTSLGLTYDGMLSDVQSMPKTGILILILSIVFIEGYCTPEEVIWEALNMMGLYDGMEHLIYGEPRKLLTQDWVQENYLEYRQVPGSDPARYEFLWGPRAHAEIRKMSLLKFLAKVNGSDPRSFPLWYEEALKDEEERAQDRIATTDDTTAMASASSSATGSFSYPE

B1: 94G11 (antibody, V domains shown)
VH: QVLLQESGPGLVKPSQILSLTCTVSGGSNRSVSYYWSWIRQPAGQGLEWIGRIYPSGSTHYNPSLKSRVTISVDTSKNQFSLKLSSLTAADTAMYFCAWGGYDSLGGRRLRHFDYWGQGALVTVSS
VL: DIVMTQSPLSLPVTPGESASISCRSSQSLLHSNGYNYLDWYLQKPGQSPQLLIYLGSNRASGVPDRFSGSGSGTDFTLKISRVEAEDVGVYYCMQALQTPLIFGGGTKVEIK
B1: the binding result is reported as “no binding” with recombinant MAGEA4, “binds” with MAGEA6, “no binding” with recombinant MAGEA10 and “no binding” in the test with recombinant MAGEA1. Also, the EC50 in test [1] was found to be 0.129 nM.

B2: 54B4 (antibody, V domains shown)
VH: EVQLVESGGGLVPPGGSLRLSCAASGFTFTTYGLTWVRQAPGKGLEWISYITSSGTIIHYADSVKGRFTISRDNAKNSLYLQMNSLRAEDTAVYYCARGRRGTVVRGVMLDQWGQGTLVTVSS
VL: DIQMTQSPSTLSASIGDRVTITCRASQSISRWLAWYQQKPGQAPKLLIYEASSLESGVPSRFSGSGSGTEFTLTISSLQPDDFAIYYCQQYSSYSLTFGGGTKVEIK
On to B2, for which the binding result was “no binding” in the test with recombinant MAGEA4, “binds” in the test with MAGEA6 and “binds” with MAGEA3 peptide No 22. For the same molecule, in test [1], the EC50 amounted to 0.029 nM.

B3: 43B10 (antibody, V domains shown)
VH: EVQLVESGGGLVPPGGSLRLSCAASGFTFTTYGLNWVRLAPGKGLEWISYITSSGTIIHYADSVKGRFTISRDNAKNSLYLQMNSLRAEDTAVYYCARGRRGTVVRGVMLDQWGQGTLVTVSS
VL: DIQMTQSPSTLSASIGDRVTIACRASQSISRWLAWYQQKPGQAPKLLIYEASSLESGVPSRFSGSGSGTEFTLTISSLQPDDFATYYCQQYSSYSLAFGGGTKVEIK
For B3, the EC50 in test [1] worked out at 0.109 nM. Further, in the test with MAGEA3 peptide No 22, the binding result is “binds”.

B4: 20C10 (antibody, V domains shown)
VH: QLQLQESGPGLVKPSETLSLTCTVSGDSISASTDSWGWIRQSPGKGLEWIGVTSYSGRPYYNPSLKRRVTISVDTSKNHFSLKLTSVTAADRALYYCARRPSLIWAFDIWGQGTMVTVSS
VL: QSALTQPASVSGSPEQSITISCTGTSSAVGNYNLVSWYQHHPGKAPLLIIYDVNERPSGVSHRFSGSRSGNTASLTISGLLAEDEADYFCCSYGGTSSLHYVFGTGTRVTVL
For B4, the EC50 in [2] worked out at 37.3 nM.

B5: 26C9 (antibody, V domains shown)
VH: QVQLVQSGAAVKKPGSSVKVSCTASGGTFGTSGITWVRQAPGQGLEWVGRVTPILGITRYAQRFQGRVTITADTSTSTAYMELSRLRSDDTALYYCARAPEMTINSDWGQGTLVTVSS
VL: QSALTQPASVSGSPGQSITISCTGTRSDVGGHNYVSWYQQDPDKAPKLIIYEVSKRPSGVSNRFSGSKSGNTASLTISGLQAEDEADYYCSSYTGTTILEVFGTGTTVTVL
Take B5: the EC50 in test [2] is 0.523 nM.

B6: 2G4 (antibody, V domains shown)
VH: QVQLVQSGAAVKKPGSSVKVSCTASGGTFGTSGITWVRQAPGQGLEWVGRITPILGITRYGQRFQGRVTITADKSTSTAYMELSRLRSDDTALYYCARAPEMTINSDWGQGTLVTVSS
VL: QSALTQPASVSGSPGQSITISCTGTRSDVGGHNYVSWYQHDPDKAPKLIIYEVSKRPSGISNRFSGSKSGNTASLTISGLQAEDEADYYCSSYTGSTILEVFGTGTTVTVL
Turning to B6, the binding result in the test with recombinant MAGEA4, with recombinant MAGEA10 and in the test with recombinant MAGEA1 was “no binding” throughout. The EC50 in test [2] was 7.79 nM.

B7: 31H10 (antibody, V domains shown)
VH: QVQLVESGGGVVQPGGSLRLSCAASDFTFSDHGMHWVRQAPGKGLQWVSFISHHGTNKYYIDSVKGRFIISRDNSKNTLYLQMNSLRTEDTAVYYCATVIGYFFGYGFDVWGQGTTVIVSS
VL: EIVMTQSPATLSVSPGEEINLACRASHSISGNLAWYQQKPGQGPRLLIYSASTRATGISARFSGSGSGTEFTLTISSLESEDFAVYFCQQYNNWPLTFGGGTKVEIK
For the molecule B7, the binding result with recombinant MAGEA4 is “no binding”; with MAGEA6, “binds”; with MAGEA3 peptide No 10, “binds”. The EC50 in [2] stood at 0.0192 nM.

B8: 9A5 (antibody, V domains shown)
VH: EVQLVASGGVMVKPGGSLRLSCAASGFSFKNAWMTWVRQAPGMGLEWVGRITSKTDGETTDYAAPVKGRFTISRDDSKNILYLQMNSLKTEDTAVYYCATRTTVCYVCWGQGTLVTVSS
VL: DIVLTQSPDSLAVSQGERATINCKSSQSLLYSSNNKNYLAWFQQKPGQPPKLLIYWASTRESGVPDRFSGSGSGTDFTLTISSLQAEDVAVYYCQQYYTIGWTFGPGTKVEIK
Consider B8, for which the binding result with MAGEA3 peptide No 5 is reported as “binds”; in the test with recombinant MAGEA4, “no binding”; with recombinant MAGEA10, “no binding”; with recombinant MAGEA1, “no binding”. Besides, the EC50 in test [2] was determined as 0.259 nM.

B9: 4D6 (antibody, V domains shown)
VH: QVQLVESGGGVVQPGRSLRLSCAASGFSFSDYAMHWVRQAPGKGLEWVAVISYDGTKKYYADSVEGRLTISRDNSQNTLSLQMSGLRVEDKGVYYCARDGCDSARCSYGMDVWGQGTTVTVSS
VL: EIVMTQSPSSLSASVGDRVTITCRASQDIRNDLGWYQQKPGKAPKLLIYGASTLQSGVPSRFSGSGSGTDFTLTISSLQPEDFATYYCLQDYSYRWTFGQGTKVEIK
Turning to B9, the binding result in test [1] is on record as “binds”.

A word on the EC50: it is the concentration needed to bring the measured effect to its halfway point.
